# Experimental data taken from paper PMC3659392 (Science translational medicine, 2012).
# T1: DprE1 (Mycolicibacterium smegmatis, UniProt A0R607)
# T1 sequence (A0R607 1-460): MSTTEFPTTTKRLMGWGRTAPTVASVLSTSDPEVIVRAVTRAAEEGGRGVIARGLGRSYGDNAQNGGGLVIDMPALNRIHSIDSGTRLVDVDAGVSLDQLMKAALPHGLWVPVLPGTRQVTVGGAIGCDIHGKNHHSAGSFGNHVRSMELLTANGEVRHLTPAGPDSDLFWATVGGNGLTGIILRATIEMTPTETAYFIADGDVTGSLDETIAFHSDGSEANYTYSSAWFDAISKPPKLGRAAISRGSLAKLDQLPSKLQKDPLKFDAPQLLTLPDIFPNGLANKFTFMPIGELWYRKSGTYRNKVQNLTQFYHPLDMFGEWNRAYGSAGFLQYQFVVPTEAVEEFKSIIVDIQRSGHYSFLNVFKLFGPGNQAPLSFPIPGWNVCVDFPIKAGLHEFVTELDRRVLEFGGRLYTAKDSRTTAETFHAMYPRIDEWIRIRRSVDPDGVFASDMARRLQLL
# B1: DprE1 (Mycolicibacterium smegmatis MC2 155) (protein)
# chain: T1 sequence (A0R607 1-460)
# Legend:
# DprE1 [1] = biological target: T1, DprE1; experiment: DCPIP enzyme assay, […] min incubation; assay type: biochemical
# DprE1 [2] = biological target: T1, DprE1; experiment: crystal structure of covalent adduct; assay type: biochemical
# purified protein [3] = substrate: CC(C)=CCC/C(C)=C/CC/C(C)=C/COP(=O)(O)O[C@@H]1O[C@H](CO)[C@@H](O)[C@H]1O; experiment: purified protein; settings: FAD; pH 8.5
# purified protein [4] = substrate: O=C1C(Cl)=CC(=Nc2ccc(O)cc2)C=C1Cl; experiment: purified protein; settings: FAD electron acceptor re-oxidizing reduced FAD
molecule,measurement,setting,value
C[C@H]1COC2(CCN(c3nc(=O)c4cc(C(F)(F)F)cc(NO)c4s3)CC2)O1 [BTZ046],IC50,DprE1 [1],19.7 µM
C[C@H]1COC2(CCN(c3nc(=O)c4cc(C(F)(F)F)cc(N)c4s3)CC2)O1 [BTZ045],IC50,DprE1 [1],11 µM
C[C@H]1COC2(CCN(c3nc(=O)c4cc(C(F)(F)F)cc([N+](=O)[O-])c4s3)CC2)O1 [BTZ043],IC50,DprE1 [2],4.5 µM
B1,Km,purified protein [3],110 µM
same,kcat,purified protein [3],0.212 ± 0.01 s⁻¹
same,kcat/Km,purified protein [3],1930 ± 182 M⁻¹ s⁻¹
same,Km,purified protein [4],4.2 µM
